From patent US20150309012A1 (BAXTER INTERNATIONAL, published 2015)

Experiments:
Assay in all cases: cell-based or functional assay
[1] = target: T1, oxMIF on the cell surface of U937 human monocytic cells (human, UniProt P14174 2-115, oxidised isoform (oxMIF); residues not stated)
[2] = target: T1, oxMIF on the cell surface of U937 human …; remark: listed apart in the source
[3] = target: T1, oxMIF on the cell surface of U937 human …; remark: listed apart in the source

T1 sequence (P14174 2-115): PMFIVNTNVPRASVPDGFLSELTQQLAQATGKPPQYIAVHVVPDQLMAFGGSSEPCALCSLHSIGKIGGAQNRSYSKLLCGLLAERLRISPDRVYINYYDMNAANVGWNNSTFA

B1: anti-oxMIF antibody RAM9 (antibody, human IgG1, kappa, V domains shown)
VH: EVQLLESGGGLVQPGGSLRLSCAASGFTFSIYSMNWVRQAPGKGLEWVSSIGSSGGTTYYADSVKGRFTISRDNSKNTLYLQMNSLRAEDTAVYYCAGSQWLYGMDVWGQGTTVTVSS
VL: DIQMTQSPSSLSASVGDRVTITCRSSQRIMTYLNWYQQKPGKAPKLLIFVASHSQSGVPSRFRGSGSETDFTLTISGLQPEDSATYYCQQSFWTPLTFGGGTKVEIKR
[1]
  IC50 of inhibition of random migration (chemokinesis) of U937 cells, Transwell, antibody in lower chamber; 25 experiments (38 plates): 0.8 nM
  IC50 of inhibition of random migration (chemokinesis) of U937 cells, Transwell, antibody in lower chamber; duplicate plates (26 plates from 13 experiments): 0.8 nM
[2]
  IC50 (inhibition of cell migration, chemokinesis assay, MI against log RAM9): 0.8 nM
[3]
  IC 50 of migration inhibition of U937 cells, antibody in the inserts (upper chamber), plate 2: 1.1 nM
